Test results: patent US20260028391A1
Where a chain is given by its changes, count along the chain named.

B1: MPK127 (antibody, V domains shown)
VH: QVQLVISGGGLVKPGGSLRLSCAASGFRIDSFSLNWVRQAPGKGLEWLASVSASSSYIDYRDSVAGRFTISRDNAQNSLYLQMDTLRAEDTAVYYCARTNGYETGSFDVWGQGTLVTVAS
VL: QSVLTQPPSVSGAPGQRVTISCTGSSSNIGAGYDVHWYQQLPGKAPKLLINANNNRPSGVPDRFSGSNSGTSASLAITGLQAEDEADYYCQSYDKTLSGYVFGLGTTVTVL
B2: MPK152 (antibody, V domains shown)
VH: EVQLVESGGGLVKPGGSLRLSCAASGLTISGYYMIWIRQAPGKGLEWISYISGSSSYTNYADSVKGRFTISRDNGQNTLFLQMDSLRVEDTAVYFCATEETPSPGPFGLWGQGTLVTVSS
VL: QSVVTQPPSVSGAPGQRVTISCTGTSSNIGAGYDVHWYQQFPGTSPKLLIFRNTNRPSGVPDRFSGSTSGSSASLAITGLQTEDEADYYCQSYDRSLDGWVFGGGTELTVL
B3: MPK129 (antibody, V domains shown)
VH: EVQLVESGGGLVKPGGSLRLSCEASGFSLSGYYMIWIRQAPGKGLEWISSISGSGNYIDYADSVKGRFTISRDNGHNTLYLQMNSLRVEDTAVYYCATEQTPSPGPFDHWGQGTLVTVSS
VL: B2 VL with S2T, A31T, F51Y, T68K, T78A, T82A, L97V, D98S, E107K
B4: MPK153 (antibody, V domains shown)
VH: EVHLVESGGGLVKPGGSLRLSCAASGFTFTGYFMIWIRQAPGKGLEWISYISSSSNYINYADSVKGRFTISRDNGQNTLYLQMNSLRPDDTAVYYCATEQVPSPGPFDLWGQGTLVTVSS
VL: B2 VL with V4L, T19I, T44A, N55D, T68K, T78A, T82A, E107K, L108V
B5: MPK132-v1 (antibody, V domains shown)
VH: B3 VH with F27I, G53S, G55S, D73H, H76Q, Y95F, D108E, H109L, T114I
VL: B2 VL with S21F, A31T, F51Y, T68K, T78A, T82A, L97V, D98S, E107K
B6: MPK126 (antibody, V domains shown)
VH: EVQLVESGGGLVKPGGSMRLSCAASGVTLSGYYMIWIRQAPGKGLEWISDISASSTYTDYADSVKGRFTVSRDNSQNTVYLQMNSLRAEDTAVYYCATEQTPSPGPFDLWGQGTLVTVSS
VL: QSVLTQPPSVSGAPGQRVTISCTGSSSNVGAGYDVHWYQQFPGTSPKLLIYRNTNRPSGVPDRFSGFKSGTSASLAITGLEAEDEADYYCQSYDRSLSGWVFGAGTKLTVL
B7: MPK151 (antibody, V domains shown)
VH: B6 VH with M18L, V27L, L29I, D62E, T69S, V70I, S75G
VL: B6 VL with R17K, V18I, S25G, V29F, N55F, F67S, E81Q, A104G
B8: MPK155 (antibody, V domains shown)
VH: B3 VH with F27I, G53S, G55S, K65R, D73H, H76Q, Y95F, H109L, T114I
VL: B6 VL with S21F, S25T, V29L, N53Y, F67S, T71S, T78A, E81Q, L97V, A104G
B9: MPK157 (antibody, V domains shown)
VH: EVQLVESGGGLVKPGGSLRLSCSASGFTLSGYNMNWVRQAPGKGLEWISYISASSSYINYADSVKGRFTISRDNGRSSLYLQMNSLRAEDTAVYFCTTQAELPGWFDPWGQGTLVTVSS
VL: QSVLTQPPSMSGAPGQRVTISCTGSSSNIGAGYDVNWYRQLPGTAPQLLIYRNTNRPSGVPDRFSGSNSGTSASLAITGLQADDEAHYYCQSYDRSLSGWVFGGGTKLTVL

Tests used:
[1] = biological target: fusion glycoprotein of the RSV used in the neutralization assay of Example 1 (respiratory syncytial virus (strain not stated)); test: cell-based or functional assay
[2] = biological target: fusion glycoprotein of the MPV D280 used in the neutralization assay of Example 3 (metapneumovirus (strain not stated)); test: cell-based or functional assay
[3] = biological target: MPV fusion glycoprotein with the D280N mutation (MPV-F N280) (metapneumovirus); test: SPR; F protein loaded on streptavidin sensors, mAb in solution
[4] = biological target: MPV fusion glycoprotein without the D280N mutation (MPV-F D280) (metapneumovirus); test: as above

| Binder | RSV Neutralization - IC50 [1] [µg/mL] | MPV D280 Neutralization - IC50 [2] [µg/mL] | Kd [3] [pM] | Kd [4] [pM] |
| --- | --- | --- | --- | --- |
| B1 | 0.0787 | 0.0243 | 1 | 1 |
| B2 | 0.0308 | 0.0152 | 69 | 1 |
| B3 | 0.0149 | 0.0081 | 1900 | 1 |
| B4 | 0.0296 | 0.0199 | 5500 | 1 |
| B5 | 0.018 | 0.0101 | 4300 | 1 |
| B6 | 0.0264 | 0.0236 | 210 | 1 |
| B7 | 0.0375 | 0.0178 | 270 | 1 |
| B8 | 0.0265 | 0.0141 | 2600 | 1 |
| B9 | 0.0241 | 0.0079 | 1200 | 1 |
